{"source": "the nanobody polyreactivity screen of Harvey et al. (2022)"}
{"assay": "yeast display, Sf9 membrane polyspecificity reagent, FACS + sequencing; frameworks hold sequencing errors", "summary_of_the_method": "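A synthetic nanobody library was expressed on Saccharomyces cerevisiae BJ5465 by galactose induction for 36–48 hours. The library was stained for 1 hour at 4 °C with 10% biotinylated, detergent-solubilized Sf9 membrane reagent and enriched with streptavidin microbeads before FACS. Low and high (top ~1%) gates were set on anti-HA fluorescence for expression and streptavidin fluorescence for reagent binding, and each polyreactivity label reflects the gate of origin.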"}
{"sequence": "QVQLVESAGGLVQAGGSLRLSCAASGRIFQFYAMGWYRQAPGKERELVATITRGGSTYYADSVKGRFTISRDNAKNTVYLQMNSLKPEDTAVYYCAAGFAGKYYWGQGTQVTVSS", "polyreactivity (PSR sort gate)": "high polyreactivity"}
{"sequence": "QVQLVESAGGLVQAGGSLRLSCAASGRIFSPYAMGWYRQAPGKERELVAAIDWDGGGTYYADSVKGRFTISRDNAKNTVYLQMNSLKPEDTAVYYCAAETDLANGTSPSDYWGQGTQVTVSS", "polyreactivity (PSR sort gate)": "low polyreactivity"}
{"sequence": "QVQLVESAGGLVQAGGSLRLSCAASGRIYGQNAMGWYRQAPGKERELVAAITGSGGRTYYADSVKGRFTISRDNAKNTVYLQMNSLKPEESAVYYSAVRVTSYYRTMDYWGQGTQVTVSS", "polyreactivity (PSR sort gate)": "low polyreactivity"}
{"sequence": "QVQLVESAGGLVQAGGSLRLSCAASGRTGVNAMGWYRQAPGKERGLVAAINTSVGRTYYADSVKGRFTISRDNAKNTVYLQMNSLKPEDTAVYYCNTDRLGAARYDYWGQGTQVTVSS", "polyreactivity (PSR sort gate)": "low polyreactivity"}
{"sequence": "QVQLVESAGGLVQAGGSLRLSCAASGSIFGSNAMGWYRQAPGKERELVASITSSGGSTHYADSVKGRFTISRDNAKNTVYLQMNSLKPEDTAVSYCATRAYGYYRWLYDYWGQGTQVTGSS", "polyreactivity (PSR sort gate)": "low polyreactivity"}
{"sequence": "QVQLVESAGGLVQAGGSLRLSCAASGSIINRYAMGWYRQAPGKERELVAAITQSGGRTYYADSVKGRFTISRDNAKNTVYLQMNRLKPDDTAGYYCNAFRWYLYDYWGQGTLVTVSS", "polyreactivity (PSR sort gate)": "high polyreactivity"}
{"sequence": "QVQLVESAGGLVQAGGSLRLSCAASGSILVLNAMGWSRQAPGKERELVAAITSRGTRTYYADSVKGRFTISRDNAKNTVYLQLNSLNPEDTAVYYCAAKAGYRYGSLAYYKYDYWGQGTQVTLSS", "polyreactivity (PSR sort gate)": "high polyreactivity"}
{"sequence": "QVQLVESAGGLVQAGGSLRLSCAASGSTFANYAMGWYRQAPGKERELVAGISWRGGRTYYADSVKGRFTISRDNAKNTVYLQMNSLKPEDTAVYYSAVVHQTFTGDYWGQGTQVTVSS", "polyreactivity (PSR sort gate)": "high polyreactivity"}
{"sequence": "QVQLVESAGGLVQAGGSLRLSCAASGSTFFTYTMGWYRQAPGKERELVAAISSGGSTYYADSVKGRFTISRDNAKNTVYLQMNSLKPEDTAVYYLLRGQGTQVTVSS", "polyreactivity (PSR sort gate)": "low polyreactivity"}
{"sequence": "QVQLVESAGGLVQAGGSLRLSCAASGSTFVTYAMGWYRQAPGKERELVAAISSTGTGRTYYADSVKGRFTISRDNAKNTVYLQMNSLKPEDTAVYSCAADATSPLTWFDYWGQGTQVTVSS", "polyreactivity (PSR sort gate)": "low polyreactivity"}
{"sequence": "QVQLVESAGGLVQAGGSLRLSCAASGSTFWIYTMGWYRQAPGKERELVAAITWSGGRTYYADSVKGRFTISRDNAKNTVYLQMNSLKPEDTAVYYCNADVYSYRPSTIQRYVLFDYWGQGTQVTVSS", "polyreactivity (PSR sort gate)": "low polyreactivity"}
{"sequence": "QVQLVESAGGLVQAGGSLRLSCAASGSTLRAYAMGWYRQAPGKERELVAAISGSGDSTYYADSVKGRFTISRDNAKNTVYLQMNSLKPEDTAVYYCNKGLFSTGNIPYYLIVYLEYNYWGQGTQVTVSS", "polyreactivity (PSR sort gate)": "low polyreactivity"}
{"sequence": "QVQLVESAGGLVQAGGSLRLSCAASGYIFQYYAMGWYRQAPGKERELVAAITSGGSTYYADSVKGRFTISRDNAKNTVYLQMNSLKPEDTAVYYCAAHLLHYRGDYWGQGTQVTVSS", "polyreactivity (PSR sort gate)": "high polyreactivity"}
{"sequence": "QVQLVESAGGLVQAGGSLRLSCAASGYIFSYNAMGGYRQAPGKERELVAAITASGGGTYYADSVKGRFTISRDNAKNTVYLHMNSLKQEDTAVYYCAADLSWSRVVFGDYDYWGQGTQVTVSS", "polyreactivity (PSR sort gate)": "low polyreactivity"}
{"sequence": "QVQLVESAGGLVQAGGSLRLSCAASGYTLYLNAMGWYRQAPGKERELVARISGGGSTNYADSVKGRFTISRDNAKNTVYLQMNSLKPEDTAVYYCAASIFAYGYRSFQLDYWGQGTQVTVSS", "polyreactivity (PSR sort gate)": "low polyreactivity"}
{"sequence": "QVQLVESAGGLVQAGGSLRLSCAAYGRIFAYNAMGWYRQSPGKERELVAAITWSGDSTYYADSVKGRFTISRDNAKNTVYLQMNSLKPEDTAVYYCATDPLFITSTRWKYDYWGQGTQVTVSS", "polyreactivity (PSR sort gate)": "low polyreactivity"}
{"sequence": "QVQLVESAGGLVQAGGSLRLSCADSGSTFSPYAMGWYIDAPGKERELVAAIRSGRTSYADSVKGRFTISRDNAKNTVYLQMNSLKPEDTAVYYCAKASRVGYYWGQGTQVTESS", "polyreactivity (PSR sort gate)": "high polyreactivity"}
{"sequence": "QVQLVESAGGLVQAGGSLRLSCASSGSTLPYNAMGWYRQAPGKESELVAAISKSGGRTYYADSVKGRFTISRDNAKNSVYLQMNSLKPEDTAVYYCNAGPYLGGGGSSRYLWGQGTQVTVSS", "polyreactivity (PSR sort gate)": "high polyreactivity"}
{"sequence": "QVQLVESAGGLVQAGGSLRLSCDASGRIIRGNAMGWYRQAPGKEREMVAAINRSGGSTYYADSVKGRFTISRDNAKNTVYLQMKSLKQEDTAVYYCIAYPASRKTGWSSGYYYWGQGTQVTVSS", "polyreactivity (PSR sort gate)": "high polyreactivity"}
{"sequence": "QVQLVESAGGLVQAGGSLRLSCDASGSIFRYYDMGWYRQAPGKERELVAAITYYGGGTYYADSVKGRFTISRDNAKNTVYLQMNSLKAEDTAVYYCAVRRVGSIYMDRYRYVVADYVYWGQGTQVTVSS", "polyreactivity (PSR sort gate)": "low polyreactivity"}
{"sequence": "QVQLVESAGGLVQAGGSLRLSCDASGSTIDEYDMGWYRQAPGKERELVAAISDRGSRTRYADSVKGRFTISRDNAKNTVYLQLNSLKPEDTAVDYCNADIYVNYWDFDYWGQGTQVTVSS", "polyreactivity (PSR sort gate)": "high polyreactivity"}
{"sequence": "QVQLVESAGGLVQAGGSLRLSSAASGYNFCSYAMGWYRQAPGKEREFVATISASGGRTYYADSVKGRFTISRDNAKNTVYLQMNSMKPEDTAVYYCNADPGNHAYWYYVEFYYYTYDYWGQGTQVTVSS", "polyreactivity (PSR sort gate)": "low polyreactivity"}
{"sequence": "QVQLVESAGGLVQAGGSLRLTCAASGRTFTFNTMGWYRQAPGKERELVAAIDGDGTTNYADSVKGRFTISRDNAKNTVYLQMNSLKPEDTAVYYCAADFLYSFWYEPTFDYWGQGTQVTVSS", "polyreactivity (PSR sort gate)": "low polyreactivity"}
{"sequence": "QVQLVESAGGLVQAGGSLRVSCAASGSTFSRYTMGWYRQAPGKERELVAAIRWSSGRTYYADSVKGRFTISRDNAKNTVYLQMNSLKPEDTAVYYCAALFPRGQADYAYWGQGTPVTVSS", "polyreactivity (PSR sort gate)": "high polyreactivity"}
{"sequence": "QVQLVESAGGLVQAGGSLSLSCAASGRTFGQYPMGWYRKAPGKERELVAAITRSAGSTYYADSVKGRFTISRDNAKNNVYLQMNSLKPEDTAVSYCAKRFYWSVDGYRTAKYYYWGQGTQVTVSS", "polyreactivity (PSR sort gate)": "high polyreactivity"}
{"sequence": "QVQLVESAGGLVQAGGSLSLSCAASGYTYWYAMGWYRQAPGKERELVAAIDSGVTRTYYADSVKGRFTISRDNAKNTVYLQMNSLKPEDTAVYYCAAGLSTDYGYWGQGTQVTVSS", "polyreactivity (PSR sort gate)": "low polyreactivity"}
{"sequence": "QVQLVESAGGLVQAGVILRLSCPASGSTIEYYAMGWYRQAPGKERELVATISIDGRTNYADSVKGRFTISRDNAKNTVYLQMNSLNPEDTAVYYCAARPYWRHRYDYCGQGTQVTVSS", "polyreactivity (PSR sort gate)": "low polyreactivity"}
{"sequence": "QVQLVESAGGLVQEGGSLRLICAASARTIVIYSMGWYRQAPGKEREFVAAISRSGGSTYYADSVKGRFTISRDNQKNTVYLQMNSLQPVDTAVYYCNTRTPYWFKSDYWGQGTQVTVSS", "polyreactivity (PSR sort gate)": "low polyreactivity"}
{"sequence": "QVQLVESAGGLVQEGGSLRLICAASGSIFGGYAMGWYRQAPGKERELVAAISWSSSTTYYADSVKGRFTISRDHAMNTVYLQLNSLKPEDTAVYDCATGIYPQTSDYDYWGQGTQVTVSS", "polyreactivity (PSR sort gate)": "low polyreactivity"}
{"sequence": "QVQLVESAGGLVQEGGSLRLSCAASGRIFGPYALGWYRQAPGKERELVAAISFSGSGTYYAASVKGRFTISRDNANNTVYLQIYSLKPEDNAVYYCAADGVYIDSNNRNTSDYWGQGTQVTVSS", "polyreactivity (PSR sort gate)": "low polyreactivity"}
{"sequence": "QVQLVESAVGLVQAGGSLPLSCDASSSTIYPYAMGWYRQAPGKERELVAAISSGGSTSYADSVKGRFTISRDNAKNTVYLQMNSLKPEDTAVYYCNADPLQCKLWTYFFGFPGYYWGQGTQVTVSS", "polyreactivity (PSR sort gate)": "low polyreactivity"}
{"sequence": "QVQLVESCGGKVQAGGSLRLSCAASGRIFWYYAMVWYRQAPGKERELVAAIDRTRVRTSYADSVKGRFTISRDNAKNTVYLQMNSLKPEDTAVYYCAADLVYGHYVTYWNSYVYWGQGTEVTVSS", "polyreactivity (PSR sort gate)": "low polyreactivity"}
{"sequence": "QVQLVESCGGLVQAGCSLRLSCAASGSIFDGNAMGWYRQAPGKERDLVAVISSRGTRTYYADSVKGRFTISRDNAKITVYLQMNSLKPEDTAVYYFNTRTSDLNGSGDYWGQGTQVTVSS", "polyreactivity (PSR sort gate)": "high polyreactivity"}
{"sequence": "QVQLVESCGGLVQAGGRLRLICAASGRTFTYNAMGWYIQAPGQERELVAAINFSGVSTYYADSVKGRFTISRDNAKYTVYLQMNSLKPEDTAVYSCNTVGYHYESDYWGQGTQVTVSS", "polyreactivity (PSR sort gate)": "high polyreactivity"}
{"sequence": "QVQLVESCGGLVQAGGRLRLSCAASGRIFYSYAMGWSRQAPGKERELVAAITVSGGSTFYADSVKGRFTISRDNAKNTVYLQMNSLKPEDTAVYYCNAPKRYSTIGYDYWGQGSQVTVSS", "polyreactivity (PSR sort gate)": "high polyreactivity"}
{"sequence": "QVQLVESCGGLVQAGGSHRLSCAASGRTFRYYAMGWYRQAPWKERELVAAIRRGGSTTYADSVKVRFTISRDNAKNTVYLQMNSLKPEDTAVYYCAARYPGTRGDGYWGQGTQVTVSS", "polyreactivity (PSR sort gate)": "high polyreactivity"}
{"sequence": "QVQLVESCGGLVQAGGSHRLSCAASGSTFKGYDMGWYRQAPGKERELVAAIDSGGSTYYADSVKGRFTISRDNAKNTVYLQMNSLKPEDTAVYYCAATGQDTYGLDVVDEYDYWGQGTQVTVSS", "polyreactivity (PSR sort gate)": "low polyreactivity"}
{"sequence": "QVQLVESCGGLVQAGGSLPLSCAASGFTFYYYTMGWYRQAPGKERELVAVITGGGGSTYYADSVKGRFTISRDNAKNTVYLQMNSLKPEDTAVYYCAAKFYGWYRERGYDYWGQGTQVTVSS", "polyreactivity (PSR sort gate)": "high polyreactivity"}
{"sequence": "QVQLVESCGGLVQAGGSLRLISAASGRTFGHNTMGWYRQAPGKEREYVAAIRWTAGSTYYADSVKGRFTISRDNAKNTVYLQMNSLKPEDTAVYYCAAYYVERRSYRVDRGTTLGYWGQGTQVTVSS", "polyreactivity (PSR sort gate)": "high polyreactivity"}
{"sequence": "QVQLVESCGGLVQAGGSLRLSCAASGFIFYDYDMGWYRQAPGKQRELVAAITYSGASTYYADSVKGRFTISRDNAKNTVYLQMNSLKPEDTAVFYCAAVKSRYADAVDYYYWGQGTQVTVSS", "polyreactivity (PSR sort gate)": "low polyreactivity"}
{"sequence": "QVQLVESCGGLVQAGGSLRLSCAASGGTFGFYAMGWYRQAPGKERELVAAISRRGGSTYYADSVKGRFTISRDNAKNTVYLQMNSLKPEDTAVYYCAARVYRYRHYDYWGQGTQVTVSS", "polyreactivity (PSR sort gate)": "high polyreactivity"}
{"sequence": "QVQLVESCGGLVQAGGSLRLSCAASGHIFFYYTMGWYRQAPGKQRELVAGITIGGSTNYADSVKGRFTISRDNAKNTVYLQMNSLKPEDTAVYYCNVVKYVYIYSYWEYYYWGQGTQVTVSS", "polyreactivity (PSR sort gate)": "low polyreactivity"}
{"sequence": "QVQLVESCGGLVQAGGSLRLSCAASGIIFSVNAMGWSRQAPGKERELVAAITIGGSTYYADSVKGRFTISRDNAKNTVYLQMNSLKPEDTAVYYCAADEYGPHTFSPESDSWGQGTQVTVSS", "polyreactivity (PSR sort gate)": "low polyreactivity"}
